In patent publication US11278600B2, “Human alpha-galactosidase variants” (Codexis, Inc., priority 2014, dated 2022):
Where a chain is given by its changes, count along the chain named.

B1: 608 (protein)
chain: LDNGLARQPTMGWLHWERFMCNLDCQEEPDSCISEKLFMEMAERMVSEGWKDAGYEYLCIDDCWMAPQRDSEGRLQADPQRFPHGIRQLANHVHSKGLKLGIYADVGNKTCAGFPGSFGYYDIDAQTFADWGVDLLKFDGCYCDSLENLADGYKHMSLALNRTGRSIVYSCEWPLYMWPFQKPNYTEIRQYCNHWRNFADIDDSWASIKSILDWTSRNQERIVDVAGPGGWNDPDMLVIGNFGLSWDQQVTQMALWAIMAAPLFMSNDLRHISPQAKALLQDKDVIAINQDPLGKQGYQLRKGDNFEVWERPLSGDAWAVAIINRQEIGGPRSYTIPVASLGKGVACNPACFITQLLPVKRQLGFYNWTSRLKSHINPTGTVLLQLENTMQMSLKDLL
modifications: Synthetic Polypeptide sequence of Variant No. 608 of mature Human GLA
B2: 535 (protein)
chain: B1 chain with Q8T, K182T
modifications: Synthetic Polypeptide sequence of Variant No. 535 of mature Human GLA
B3: 525 (protein)
chain: B1 chain with Q8T, Q76H, W368A
modifications: Synthetic Polypeptide sequence of Variant No. 525 of mature Human GLA
B4: 531 (protein)
chain: B1 chain with Q8T, K182H
modifications: Synthetic Polypeptide sequence of Variant No. 531 of mature Human GLA
B5: 523 (protein)
chain: B1 chain with Q8T, N91M
modifications: Synthetic Polypeptide sequence of Variant No. 523 of mature Human GLA
B6: 530 (protein)
chain: B1 chain with Q8T, K182E
modifications: Synthetic Polypeptide sequence of Variant No. 530 of mature Human GLA
B7: 524 (protein)
chain: B1 chain with Q8T, N91V
modifications: Synthetic Polypeptide sequence of Variant No. 524 of mature Human GLA
B8: 534 (protein)
chain: B1 chain with Q8T, K182R
modifications: Synthetic Polypeptide sequence of Variant No. 534 of mature Human GLA
B9: 529 (protein)
chain: B1 chain with Q8T, K182A
modifications: Synthetic Polypeptide sequence of Variant No. 529 of mature Human GLA
B10: 526 (protein)
chain: B1 chain with Q8T, R74H
modifications: Synthetic Polypeptide sequence of Variant No. 526 of mature Human GLA
B11: 527 (protein)
chain: B1 chain with Q8T, H92E
modifications: Synthetic Polypeptide sequence of Variant No. 527 of mature Human GLA
B12: 537 (protein)
chain: B1 chain with Q8T, K182Y
modifications: Synthetic Polypeptide sequence of Variant No. 537 of mature Human GLA
B13: 532 (protein)
chain: B1 chain with Q8T, K182M
modifications: Synthetic Polypeptide sequence of Variant No. 532 of mature Human GLA
B14: 528 (protein)
chain: B1 chain with Q8T, D130Q
modifications: Synthetic Polypeptide sequence of Variant No. 528 of mature Human GLA
B15: 533 (protein)
chain: B1 chain with Q8T, K182Q
modifications: Synthetic Polypeptide sequence of Variant No. 533 of mature Human GLA
B16: 536 (protein)
chain: B1 chain with Q8T, K182V
modifications: Synthetic Polypeptide sequence of Variant No. 536 of mature Human GLA

Legend:
Assay type in all cases: biochemical
[1] = HTP-analysis of yeast culture supernatants, no challenge (MUGal hydrolysis); settings: activity of the variant/activity of Rd3BB (SEQ ID NO: 13)
Method in brief: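 GLA variants expressed in yeast INVSc1, secreted into SD-Ura broth over 66-84 h at 30° C; clarified supernatants tested without challenge. Supernatant mixed with McIlvaine buffer pH 4.8 and 2 mM MUGal (citrate/KCl, pH 4.6), 37° C for 30-180 min, carbonate-quenched, fluorescence Ex 355/Em 448 nm.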

[2] = HTP-analysis of supernatants pretreated with acid (MUGal hydrolysis); settings: activity of the variant/activity of Rd3BB (SEQ ID NO: 13); challenge at pH 3.7
Method in brief: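 Yeast INVSc1 supernatant, GLA variants; acid challenge: McIlvaine pH 3.3-4.3, 37° C., 1-3 h. Assay: MUGal in McIlvaine pH 4.8 plus citrate pH 4.3, 37° C., 30-180 min, Na2CO3 stop, Ex 355/Em 448 nm.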

[3] = HTP-analysis of supernatants pretreated with base (MUGal hydrolysis); settings: activity of the variant/activity of Rd3BB (SEQ ID NO: 13); challenge at pH 9.7
Method in brief: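 Supernatants from INVSc1 yeast expressing GLA variants (SD-Ura, 66-84 h, 30° C) were mixed with McIlvaine buffer pH 7.0-8.2 or 200 mM sodium bicarbonate pH 9.1-9.7 and held 1-18 h at 37° C. Residual activity was then measured on MUGal at pH 4.8/4.3, 37° C, 30-180 min, by fluorescence (Ex 355/Em 448 nm).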

Row | Molecule | Relative Activity of GLA Variants After No Challenge (NC) [1] | Relative Activity of GLA Variants After Challenge at pH 3.7 [2] | Relative Activity of GLA Variants After Challenge at pH 9.7 [3]
1 | B1 | + (+ = 1.5 to 5 relative activity over Rd3BB (SEQ ID NO: 13)) | + (+ = 1.5 to 5 relative activity over Rd3BB (SEQ ID NO: 13)) | + (+ = 1.5 to 5 relative activity over Rd3BB (SEQ ID NO: 13))
2 | B2 | + (+ = 1.5 to 5 relative activity over Rd3BB (SEQ ID NO: 13)) | + (+ = 1.5 to 5 relative activity over Rd3BB (SEQ ID NO: 13)) | ++ (++ = >5 to 10 relative activity over Rd3BB (SEQ ID NO: 13))
3 | B3 | + (+ = 1.5 to 5 relative activity over Rd3BB (SEQ ID NO: 13)) | ++ (++ = >5 to 10 relative activity over Rd3BB (SEQ ID NO: 13)) | ++ (++ = >5 to 10 relative activity over Rd3BB (SEQ ID NO: 13))
4 | B4 | + (+ = 1.5 to 5 relative activity over Rd3BB (SEQ ID NO: 13)) | + (+ = 1.5 to 5 relative activity over Rd3BB (SEQ ID NO: 13)) | ++ (++ = >5 to 10 relative activity over Rd3BB (SEQ ID NO: 13))
5 | B5 | + (+ = 1.5 to 5 relative activity over Rd3BB (SEQ ID NO: 13)) | + (+ = 1.5 to 5 relative activity over Rd3BB (SEQ ID NO: 13)) | + (+ = 1.5 to 5 relative activity over Rd3BB (SEQ ID NO: 13))
6 | B6 | + (+ = 1.5 to 5 relative activity over Rd3BB (SEQ ID NO: 13)) | + (+ = 1.5 to 5 relative activity over Rd3BB (SEQ ID NO: 13)) | ++ (++ = >5 to 10 relative activity over Rd3BB (SEQ ID NO: 13))
7 | B7 | − (− = <1.5 relative activity to Rd3BB (SEQ ID NO: 13)) | + (+ = 1.5 to 5 relative activity over Rd3BB (SEQ ID NO: 13)) | + (+ = 1.5 to 5 relative activity over Rd3BB (SEQ ID NO: 13))
8 | B8 | + (+ = 1.5 to 5 relative activity over Rd3BB (SEQ ID NO: 13)) | + (+ = 1.5 to 5 relative activity over Rd3BB (SEQ ID NO: 13)) | ++ (++ = >5 to 10 relative activity over Rd3BB (SEQ ID NO: 13))
9 | B9 | + (+ = 1.5 to 5 relative activity over Rd3BB (SEQ ID NO: 13)) | + (+ = 1.5 to 5 relative activity over Rd3BB (SEQ ID NO: 13)) | ++ (++ = >5 to 10 relative activity over Rd3BB (SEQ ID NO: 13))
10 | B10 | + (+ = 1.5 to 5 relative activity over Rd3BB (SEQ ID NO: 13)) | + (+ = 1.5 to 5 relative activity over Rd3BB (SEQ ID NO: 13)) | ++ (++ = >5 to 10 relative activity over Rd3BB (SEQ ID NO: 13))
11 | B11 | + (+ = 1.5 to 5 relative activity over Rd3BB (SEQ ID NO: 13)) | + (+ = 1.5 to 5 relative activity over Rd3BB (SEQ ID NO: 13)) | ++ (++ = >5 to 10 relative activity over Rd3BB (SEQ ID NO: 13))
12 | B12 | + (+ = 1.5 to 5 relative activity over Rd3BB (SEQ ID NO: 13)) | + (+ = 1.5 to 5 relative activity over Rd3BB (SEQ ID NO: 13)) | ++ (++ = >5 to 10 relative activity over Rd3BB (SEQ ID NO: 13))
13 | B13 | + (+ = 1.5 to 5 relative activity over Rd3BB (SEQ ID NO: 13)) | + (+ = 1.5 to 5 relative activity over Rd3BB (SEQ ID NO: 13)) | ++ (++ = >5 to 10 relative activity over Rd3BB (SEQ ID NO: 13))
14 | B14 | + (+ = 1.5 to 5 relative activity over Rd3BB (SEQ ID NO: 13)) | + (+ = 1.5 to 5 relative activity over Rd3BB (SEQ ID NO: 13)) | ++ (++ = >5 to 10 relative activity over Rd3BB (SEQ ID NO: 13))
15 | B15 | + (+ = 1.5 to 5 relative activity over Rd3BB (SEQ ID NO: 13)) | + (+ = 1.5 to 5 relative activity over Rd3BB (SEQ ID NO: 13)) | ++ (++ = >5 to 10 relative activity over Rd3BB (SEQ ID NO: 13))
16 | B16 | + (+ = 1.5 to 5 relative activity over Rd3BB (SEQ ID NO: 13)) | + (+ = 1.5 to 5 relative activity over Rd3BB (SEQ ID NO: 13)) | ++ (++ = >5 to 10 relative activity over Rd3BB (SEQ ID NO: 13))
